According to patent US20250019457A1 (IBIO, published 2025):
Residue numbers refer to the chain shown, from its start.

T1: mouse Trop2 on ExpiCHO cells overexpressing mouse Trop2 (mouse, UniProt Q8BGV3 25-317)
T1 construct: Cell-surface form
T1 sequence: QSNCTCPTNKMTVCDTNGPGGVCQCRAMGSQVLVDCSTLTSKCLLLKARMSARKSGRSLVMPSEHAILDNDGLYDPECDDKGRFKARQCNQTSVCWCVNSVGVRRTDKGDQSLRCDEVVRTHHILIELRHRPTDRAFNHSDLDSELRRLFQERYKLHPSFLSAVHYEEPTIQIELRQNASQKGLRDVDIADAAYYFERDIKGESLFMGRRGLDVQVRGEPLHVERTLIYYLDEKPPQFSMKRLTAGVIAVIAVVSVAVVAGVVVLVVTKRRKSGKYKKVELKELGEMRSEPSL

T2: human Trop2 on cells (FaDu cells, endogenous; ExpiCHO cells overexpressing human Trop2) (human, UniProt P09758 27-323)
T2 construct: Cell-surface form
T2 sequence: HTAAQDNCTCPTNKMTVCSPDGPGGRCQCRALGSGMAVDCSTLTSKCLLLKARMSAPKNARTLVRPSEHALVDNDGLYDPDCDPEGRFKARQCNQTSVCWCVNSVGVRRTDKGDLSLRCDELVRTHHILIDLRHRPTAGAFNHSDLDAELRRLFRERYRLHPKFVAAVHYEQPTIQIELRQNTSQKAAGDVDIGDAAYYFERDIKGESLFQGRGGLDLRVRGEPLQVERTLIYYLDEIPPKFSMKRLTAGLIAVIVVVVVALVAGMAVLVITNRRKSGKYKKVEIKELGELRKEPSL

T3: human TROP2 (purified recombinant antigen, Acro Biosystems Cat #TR2-H5223) (human, UniProt P09758 27-274)
T3 construct: Bought recombinant protein; also called huTROP2
T3 sequence: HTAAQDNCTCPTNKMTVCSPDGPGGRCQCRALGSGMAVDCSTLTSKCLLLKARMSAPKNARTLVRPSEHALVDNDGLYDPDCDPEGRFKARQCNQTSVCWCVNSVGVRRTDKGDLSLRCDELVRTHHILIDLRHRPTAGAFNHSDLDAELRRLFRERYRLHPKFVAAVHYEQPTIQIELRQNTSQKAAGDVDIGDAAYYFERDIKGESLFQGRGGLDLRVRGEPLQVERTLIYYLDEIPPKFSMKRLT

T4: human EpCAM (purified recombinant antigen, Acro Biosystems Cat #EPM-H5223) (human, UniProt P16422 24-265)
T4 construct: Bought recombinant protein
T4 sequence: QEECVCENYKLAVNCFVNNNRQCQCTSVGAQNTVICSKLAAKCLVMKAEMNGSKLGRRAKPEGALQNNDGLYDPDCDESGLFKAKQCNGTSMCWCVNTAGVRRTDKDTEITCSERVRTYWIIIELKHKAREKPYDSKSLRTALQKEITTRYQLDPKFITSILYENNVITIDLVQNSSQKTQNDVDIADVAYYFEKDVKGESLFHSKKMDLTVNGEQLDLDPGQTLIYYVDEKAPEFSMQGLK

T5: cynomolgus/rhesus TROP2 (purified recombinant antigen, Acro Biosystems Cat #TR2-R52H3) (cynomolgus/rhesus, UniProt P09758 27-274 (human entry))
T5 construct: Bought recombinant protein; also called cyTROP2; cyno/rhesus TROP2
T5 chain: T3 sequence with M36V, S67N, I204V

T6: mouse TROP2 (purified recombinant antigen, Acro Biosystems Cat #TR2-M52H6) (mouse, UniProt Q8BGV3 25-270)
T6 construct: Bought recombinant protein; also called msTROP2
T6 sequence: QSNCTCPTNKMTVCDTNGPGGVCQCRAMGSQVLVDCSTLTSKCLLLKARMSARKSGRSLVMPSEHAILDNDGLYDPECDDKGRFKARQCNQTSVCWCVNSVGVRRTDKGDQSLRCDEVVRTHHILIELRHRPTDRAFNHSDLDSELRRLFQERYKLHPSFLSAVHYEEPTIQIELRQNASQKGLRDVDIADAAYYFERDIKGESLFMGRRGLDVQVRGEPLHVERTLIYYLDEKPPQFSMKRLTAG

B1: SD-530939 (antibody, V domains shown)
VH: AVTLDESGGGLQTPGGGLSLVCKASGFDFIDYDMFWVRQAPGKGLEWVGVINRSGSYTNYAPAVKGRATISRDNGQSTLRLQLNNLRAEDTGTYYCARGACTHCWDADSAGYIDAWGHGTEVIVSS
VL: ALALTQPSSVSANPGETVKITCSGGYSGYGWYQQKSPGSAPVTVIYWNDKRPSNIPSRFSGSLSGSTNTLIITGVQAEDEAVYFCGGYDSSPGYVGIFGAGTTLTVL
notes: Chicken/human chimera
B2: SD-589775 (antibody, V domains shown)
VH: B1 VH with L79M
VL: ALALTQPSSVSANPGGTVKITCSGSSGSYGWHQQKSPGSAPVTVIYSSDKRPSDIPSRFSGALSGSTATLTITGVRAEDEAVYYCGGYDGSTDVGIFGAGTTLTVL
notes: Chicken/human chimera; also called parental chimera
B3: SD-802432 (antibody, V domains shown)
VH: B1 VH with G49A, A115T
VL: ALALTQPSSVSANPGETVKITCSGGSGSYGWFQQKSPGIAPVIVIFNDDNRPSDIPSRFSGSKSGSTGTLTITGVQAEDEAVYFCGGYDGSTDAGIFGAGTTLTVL
notes: Chicken/human chimera
B4: SD-320063 (antibody, V domains shown)
VH: B1 VH with E46A, L79V, R98K, A100V, Y112N
VL: ALALTQPSSVSANPGETVEITCSGGSGNYGWFQQKSPGSAPVTVIYNNNYRLSDIPSRFSGSASGSTATLTITGVRVEDEAVYFCGSADSTYVGLFGAGTTLTVL
notes: Chicken/human chimera
B5: SD-168804 (antibody, V domains shown)
VH: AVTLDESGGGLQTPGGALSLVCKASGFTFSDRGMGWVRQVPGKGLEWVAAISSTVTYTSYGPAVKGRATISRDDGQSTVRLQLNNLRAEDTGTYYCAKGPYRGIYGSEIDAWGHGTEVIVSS
VL: ALALTQPSSVSANPGETVKITCSGGSYSYGSYYYGWYQQKSPGSAPVTVIYDNDKRPSGIPSRFSGSKSGSTGTLTITGVQAEDEAVYFCGSTDSSSTAAFGAGTTLTVL
notes: Chicken/human chimera
B6: SD-970200 (antibody, V domains shown)
VH: AVTLDESGGGLQTPGGALSLVCKGSGFTFSSYAMGWVRQAPGKGLEYVAAISSGSSTGYGAAVKGRATISKDTGQSTVRLQLNNLRAEDTATYYCAKSGYGGSASYVSDIDAWGHGTEVIVSS
VL: ALALTQPSSVSANPGETVEITCSGGGDYYGTYYYGWYQQKAPGSAPVTVIYDNTKRPSNIPSRFSGSTSGSTNTLTITGVQADDEAVYYCGSYDSSAGIFGAGTTLTVL
notes: Chicken/human chimera
B7: RS7 (antibody, V domains shown)
VH: QVQLQQSGSELKKPGASVKVSCKASGYTFTNYGMNWVKQAPGQGLKWMGWINTYTGEPTYTDDFKGRFAFSLDTSVSTAYLQISSLKADDTAVYFCARGGFGSSYWYFDVWGQGSLVTVSS
VL: DIQLTQSPSSLSASVGDRVSITCKASQDVSIAVAWYQQKPGKAPKLLIYSASYRYTGVPDRFSGSGSGTDFTLTISSLQPEDFAVYYCQQHYITPLTFGAGTKVEIKR
B8: SD-685208 (antibody, V domains shown)
VH: B1 VH with G17A, L79M
VL: ALALTQPSSVSANPGETVKITCSGSSGSYGWFQQKSPGSAPVTVIYWNDKRPSDIPSRFSGSTSGSTGTLTITGVQADDEAVYFCGNADSSGTFGAGTTLTVL
notes: Chicken/human chimera

molecular target: T1, mouse Trop2 on ExpiCHO cells …; assay: flow cytometry on ExpiCHO cells overexpressing mouse Trop2, percent of cells bound

| EC50 (read off the curve) | Binder |
| --- | --- |
| ~0.02 nM | B1 |
| ~0.02 nM | B2 |
| ~0.02 nM | B3 |
| ~0.03 nM | B4 |
| ~5 nM | B5 |

molecular target: T2, human Trop2 on cells (FaDu cells, …); assay: flow cytometry on ExpiCHO cells overexpressing human Trop2, percent of cells bound

| EC50 (read off the curve) | Binder |
| --- | --- |
| ~0.05 nM | B6 |
| ~0.02 nM | B1 |
| ~0.02 nM | B2 |
| ~0.02 nM | B3 |
| ~0.03 nM | B7 |

molecular target: T2, human Trop2 on cells (FaDu cells, …); assay: flow cytometry on FaDu cells (endogenous human Trop2); average of n=1-3 experiments

| EC50 | Binder |
| --- | --- |
| 1.53 nM | B6 |
| 0.673 nM | B1 |
| 0.607 nM | B2 |
| 0.513 nM | B8 |
| 0.738 nM | B3 |
| 1.99 nM | B4 |
| 2 nM | B7 |
| 1.05 nM | B5 |

molecular target: T3, human TROP2 (purified recombinant …); assay: MSD assay: biotinylated TROP2 on streptavidin plate, antibody titrated, anti-human SULFO-TAG detection

| EC50 (read off the curve) | Binder |
| --- | --- |
| ~0.2 nM | B6 |
| ~0.2 nM | B1 |
| ~0.08 nM | B8 |
| ~0.2 nM | B3 |
| ~0.3 nM | B7 |

molecular target: T4, human EpCAM (purified recombinant …); assay: SPR, Carterra LSA; antibody captured on anti-human IgG, antigen injected

| Binder | binding result |
| --- | --- |
| B6 | no binding (tested: 1 µM top concentration) |
| B1 | no binding (tested: 1 µM top concentration) |
| B2 | no binding (tested: 1 µM top concentration) |
| B8 | no binding (tested: 1 µM top concentration) |
| B3 | no binding (tested: 1 µM top concentration) |
| B4 | no binding (tested: 1 µM top concentration) |
| B5 | no binding (tested: 1 µM top concentration) |

molecular target: T3, human TROP2 (purified recombinant …); assay: SPR, Carterra LSA; antibody captured on anti-human IgG, antigen injected; 1:1 fit

| Kd | koff | kon | Binder |
| --- | --- | --- | --- |
| 0.21 nM | 0.000114 s⁻¹ | 555000 M⁻¹ s⁻¹ | B6 |
| 0.46 nM | 0.000155 s⁻¹ | 337000 M⁻¹ s⁻¹ | B1 |
| 0.35 nM | 0.000223 s⁻¹ | 643000 M⁻¹ s⁻¹ | B2 |
| 3.81 nM | 0.000898 s⁻¹ | 235000 M⁻¹ s⁻¹ | B8 |
| 0.1 nM | 5.53e-05 s⁻¹ | 542000 M⁻¹ s⁻¹ | B3 |
| 0.23 nM | 3.42e-05 s⁻¹ | 148000 M⁻¹ s⁻¹ | B4 |
| 1.81 nM | 0.000201 s⁻¹ | 111000 M⁻¹ s⁻¹ | B7 |
| 11.5 nM | 0.000294 s⁻¹ | 25500 M⁻¹ s⁻¹ | B5 |

Molecular target: T5, cynomolgus/rhesus TROP2 (purified …)
Assay: as above

| Kd | Binder |
| --- | --- |
| 0.29 nM | B6 |
| 0.6 nM | B1 |
| 0.48 nM | B2 |
| 6.08 nM | B8 |
| 0.13 nM | B3 |
| 0.11 nM | B4 |
| 2.05 nM | B7 |
| 15.3 nM | B5 |

molecular target: T3, human TROP2 (purified recombinant …); assay: as above; remark: another data set of the same source

| Kd | Binder |
| --- | --- |
| 0.21 nM | B6 |
| 0.46 nM | B1 |
| 0.35 nM | B2 |
| 3.81 nM | B8 |
| 0.1 nM | B3 |
| 0.23 nM | B4 |
| 1.81 nM | B7 |
| 11.5 nM | B5 |

molecular target: T6, mouse TROP2 (purified recombinant …); assay: as above

| Kd | Binder |
| --- | --- |
| 0.63 nM | B6 |
| 0.96 nM | B1 |
| 0.35 nM | B2 |
| 11.4 nM | B8 |
| 0.3 nM | B3 |
| 1.59 nM | B4 |
| 13.6 nM | B5 |

molecular target: T6, mouse TROP2 (purified recombinant …); assay: SPR, Carterra LSA; ratio of KD values, reference huTROP2

| Fold difference in affinity (huTROP2:msTROP2) | Binder |
| --- | --- |
| 3 fold | B6 |
| 2.1 fold | B1 |
| 1 fold | B2 |
| 3 fold | B8 |
| 2.9 fold | B3 |
| 6.9 fold | B4 |
| 1.2 fold | B5 |
